B1: CDC14A (parent)
chain: LNLAMVYRYCCKLNKKLKSYSLSR
B2: TRIM63 (parent)
chain: FRCPTCRHEVIMDRHGVYGLQRNL

Variants of: B1
Test: protein stability index of a GFP-peptide fusion (GPS, HEK-293T) (PSI 1-6); higher = more stable
Conditions: c terminus: a fixed tail appended
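Also: lentivirally expressed fusions sorted by FACS into six bins by GFP to DsRed ratio, PSI derived from sequencing read proportions per bin multiplied by bin number.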

Going from S23A to S23H, the protein stability index falls from 3.5 to 2.36.

Compared with S23K, S23F is lower in protein stability index: 3.42 for the first, 2.69 for the second.

First: S23P
Second: S23Q
The protein stability index of the first is higher: 2.95 for the first, 2.53 for the second.

First: S23R
Second: S23W
The protein stability index of the first is higher: 4.26 for the first, 3.77 for the second.

Going from S23N to S23Y, the protein stability index rises from 2.35 to 2.97.

Going from S23I to S23D, the protein stability index falls from 3.46 to 2.55.

Compared with S23G, S23T is higher in protein stability index: 2.2 for the first, 3.09 for the second.

Compared with S23E, S23C is lower in protein stability index: 4.66 for the first, 2.49 for the second.

Going from S23V to S23L, the protein stability index falls from 2.77 to 2.37.

First: R24N
Second: R24C
The protein stability index of the first is higher: 3.15 for the first, 3.05 for the second.

First: R24E
Second: R24T
The protein stability index of the first is higher: 2.72 for the first, 1.99 for the second.

First: R24Y
Second: R24G
The protein stability index of the first is higher: 3.41 for the first, 2.21 for the second.

First: R24L
Second: R24V
The protein stability index of the first is higher: 3.97 for the first, 3.52 for the second.

First: R24W
Second: R24H
The protein stability index of the first is higher: 3.11 for the first, 2.69 for the second.

Going from R24P to R24F, the protein stability index rises from 2.59 to 2.97.

First: R24S
Second: R24K
The protein stability index of the first is higher: 2.19 for the first, 2.13 for the second.

Going from R24M to R24D, the protein stability index rises from 2.37 to 3.64.

Going from R24A to R24I, the protein stability index rises from 3.55 to 3.79.

Compared with R24Q, Y20W is lower in protein stability index: 4.16 for the first, 3.32 for the second.

Compared with Y20K, Y20H is lower in protein stability index: 3.24 for the first, 3.02 for the second.

Compared with Y20S, Y20P is higher in protein stability index: 2.63 for the first, 4.23 for the second.

Going from Y20V to Y20L, the protein stability index rises from 2.52 to 2.94.

Compared with Y20I, Y20Q is lower in protein stability index: 3.15 for the first, 3.1 for the second.

First: Y20A
Second: Y20T
The protein stability index of the first is higher: 2.61 for the first, 2.42 for the second.

Compared with Y20R, Y20D is higher in protein stability index: 2.17 for the first, 3.34 for the second.

Going from Y20N to Y20C, the protein stability index rises from 2.16 to 3.44.

Compared with S19K, S19P is higher in protein stability index: 2.19 for the first, 2.75 for the second.

Going from S19W to S19H, the protein stability index falls from 3.46 to 2.3.

First: S19D
Second: S19M
The protein stability index of the first is lower: 2.28 for the first, 3.69 for the second.

Compared with S19Q, S19C is higher in protein stability index: 1.51 for the first, 2.98 for the second.

First: S19I
Second: S19A
The protein stability index of the first is lower: 3.03 for the first, 3.52 for the second.

First: S19G
Second: S19N
The protein stability index of the first is lower: 2.5 for the first, 2.8 for the second.

Going from S19L to S19R, the protein stability index rises from 2.5 to 3.44.

Going from K18A to K18V, the protein stability index rises from 2.11 to 2.46.

First: K18Y
Second: K18H
The protein stability index of the first is lower: 2.67 for the first, 2.96 for the second.

First: K18N
Second: K18C
The protein stability index of the first is higher: 2.77 for the first, 1.73 for the second.

Going from K18I to K18D, the protein stability index falls from 2.79 to 2.42.

Compared with K18L, K18E is higher in protein stability index: 1.71 for the first, 3.12 for the second.

First: K18G
Second: K18S
The protein stability index of the first is higher: 3.2 for the first, 2.9 for the second.

Compared with K18P, K18T is higher in protein stability index: 2.5 for the first, 3.6 for the second.

Going from K18Q to K18M, the protein stability index rises from 1.97 to 3.72.

Compared with L22T, L22N is lower in protein stability index: 2.8 for the first, 1.75 for the second.

Going from L22P to L22R, the protein stability index rises from 2.24 to 2.31.

First: L22I
Second: L22Y
The protein stability index of the first is lower: 3.6 for the first, 4.37 for the second.

First: L22W
Second: L22A
The protein stability index of the first is lower: 2.76 for the first, 4.08 for the second.

Compared with L22G, L22D is lower in protein stability index: 3.46 for the first, 2.2 for the second.

Compared with L22F, L22H is higher in protein stability index: 3.36 for the first, 3.37 for the second.

Going from L22V to L22C, the protein stability index rises from 1.04 to 2.92.

Going from L22S to L22E, the protein stability index falls from 3.58 to 1.85.

Compared with L22K, S21A is higher in protein stability index: 2.39 for the first, 3.27 for the second.

First: S21D
Second: S21W
The protein stability index of the first is lower: 2.01 for the first, 2.86 for the second.

Compared with S21F, S21H is lower in protein stability index: 2.38 for the first, 2.13 for the second.

Compared with S21N, S21P is higher in protein stability index: 2.51 for the first, 3.64 for the second.

Going from S21C to S21V, the protein stability index rises from 3.76 to 4.29.

Compared with S21G, S21I is higher in protein stability index: 2.26 for the first, 3.96 for the second.

Compared with S21L, S21Y is higher in protein stability index: 2.25 for the first, 2.62 for the second.

Going from S21T to S21Q, the protein stability index falls from 2.92 to 2.86.

Going from S21E to S21M, the protein stability index rises from 3.12 to 3.42.

Compared with L17N, L17M is higher in protein stability index: 2.54 for the first, 3.07 for the second.

First: L17S
Second: L17V
The protein stability index of the first is lower: 2.17 for the first, 4.14 for the second.

Compared with L17P, L17Y is higher in protein stability index: 3.05 for the first, 3.33 for the second.

Compared with L17R, L17K is lower in protein stability index: 2.78 for the first, 2.24 for the second.

Work on L17T yielded a protein stability index of 2.08.

Variants of: B2
Test: as above
Conditions: c terminus: a fixed tail appended

Compared with R2P, R2S is lower in protein stability index: 1.56 for the first, 1.4 for the second.

Going from R2D to R2L, the protein stability index falls from 3.32 to 1.98.

Going from R2T to R2N, the protein stability index falls from 2.05 to 1.44.

Going from R2Y to R2K, the protein stability index falls from 1.87 to 1.77.

Compared with R2I, R2W is lower in protein stability index: 2.79 for the first, 2.42 for the second.

First: R2C
Second: R2H
The protein stability index of the first is higher: 2.58 for the first, 2.17 for the second.

Compared with R2V, R2E is higher in protein stability index: 1.86 for the first, 2.55 for the second.

Going from R2A to R2Q, the protein stability index falls from 2.96 to 1.84.

Going from R2G to R2M, the protein stability index falls from 3.06 to 2.58.

Going from R2F to C3A, the protein stability index falls from 3.38 to 3.2.

Going from C3G to C3E, the protein stability index falls from 2.15 to 2.04.

Compared with C3D, C3H is higher in protein stability index: 1.7 for the first, 4.77 for the second.

Compared with C3F, F1W is lower in protein stability index: 3.62 for the first, 2.14 for the second.

First: F1E
Second: F1S
The protein stability index of the first is higher: 2.69 for the first, 2.62 for the second.

Compared with F1C, F1V is lower in protein stability index: 2.44 for the first, 2.15 for the second.

Going from F1H to F1G, the protein stability index falls from 2.39 to 1.38.

First: F1I
Second: F1K
The protein stability index of the first is lower: 1.47 for the first, 2.91 for the second.

Compared with F1P, F1A is lower in protein stability index: 3.34 for the first, 1.16 for the second.

Compared with F1Y, F1D is higher in protein stability index: 1.96 for the first, 2.76 for the second.

Compared with F1N, F1L is lower in protein stability index: 3.53 for the first, 3.27 for the second.

Going from F1T to F1M, the protein stability index falls from 3.56 to 2.72.
